Experimental data reported in publication PMC12817928, “Demonstration of in vivo efficacy, cryo-EM-epitope identification, and breadth of two anti-alphavirus bispecific single domain antibodies” (Journal of Virology, 2025).

How the values were obtained:
Assay in all cases: cryo-EM structure
Conditions in all cases: both partners purified
[1] = molecular target: T1, VEEV virus-like particle (VLP), strain TC83 (subtype IAB) (Venezuelan equine encephalitis virus, …, strain)
T1 construct: also called VEEV VLP; VEEV IAB VLP
T1 chain 1: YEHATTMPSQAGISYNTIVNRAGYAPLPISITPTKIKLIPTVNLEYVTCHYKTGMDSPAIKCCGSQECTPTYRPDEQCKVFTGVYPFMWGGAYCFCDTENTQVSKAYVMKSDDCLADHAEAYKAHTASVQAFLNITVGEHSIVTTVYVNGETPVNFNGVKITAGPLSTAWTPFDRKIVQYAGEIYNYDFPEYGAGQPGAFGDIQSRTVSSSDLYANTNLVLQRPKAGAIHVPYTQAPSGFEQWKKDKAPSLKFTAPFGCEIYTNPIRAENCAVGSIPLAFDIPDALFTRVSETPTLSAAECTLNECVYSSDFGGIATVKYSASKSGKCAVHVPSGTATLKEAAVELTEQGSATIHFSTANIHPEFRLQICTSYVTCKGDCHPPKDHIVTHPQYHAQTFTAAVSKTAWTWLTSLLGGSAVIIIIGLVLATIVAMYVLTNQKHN
T1 chain 2: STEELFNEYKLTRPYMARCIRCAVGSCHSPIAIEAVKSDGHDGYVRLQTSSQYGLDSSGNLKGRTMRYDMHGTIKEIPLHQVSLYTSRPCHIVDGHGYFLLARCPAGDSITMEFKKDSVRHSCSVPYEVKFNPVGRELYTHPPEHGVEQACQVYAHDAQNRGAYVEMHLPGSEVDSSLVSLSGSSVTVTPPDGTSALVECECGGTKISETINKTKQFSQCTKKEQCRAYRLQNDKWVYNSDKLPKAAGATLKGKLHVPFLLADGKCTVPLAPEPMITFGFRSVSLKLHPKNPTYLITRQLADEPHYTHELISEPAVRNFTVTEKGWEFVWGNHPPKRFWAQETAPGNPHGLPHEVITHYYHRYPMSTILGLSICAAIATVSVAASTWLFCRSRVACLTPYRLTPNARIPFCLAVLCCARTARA

[2] = molecular target: T2, VEEV E1 envelope glycoprotein (strain TC83), in the VLP (Venezuelan equine encephalitis virus, …)
T2 construct: also called E1 subunit
T2 chain 1: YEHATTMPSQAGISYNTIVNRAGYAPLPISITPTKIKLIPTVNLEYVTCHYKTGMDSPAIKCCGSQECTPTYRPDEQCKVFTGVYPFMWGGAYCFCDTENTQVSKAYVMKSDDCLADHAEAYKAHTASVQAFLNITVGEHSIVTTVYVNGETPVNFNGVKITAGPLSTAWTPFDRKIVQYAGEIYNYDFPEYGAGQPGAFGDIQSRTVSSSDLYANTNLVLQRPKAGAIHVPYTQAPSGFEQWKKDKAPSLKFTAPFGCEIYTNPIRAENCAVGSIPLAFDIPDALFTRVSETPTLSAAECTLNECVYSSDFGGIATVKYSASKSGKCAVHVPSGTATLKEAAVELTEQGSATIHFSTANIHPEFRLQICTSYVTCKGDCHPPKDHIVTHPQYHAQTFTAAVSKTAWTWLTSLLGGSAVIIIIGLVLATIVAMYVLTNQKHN
T2 chain 2: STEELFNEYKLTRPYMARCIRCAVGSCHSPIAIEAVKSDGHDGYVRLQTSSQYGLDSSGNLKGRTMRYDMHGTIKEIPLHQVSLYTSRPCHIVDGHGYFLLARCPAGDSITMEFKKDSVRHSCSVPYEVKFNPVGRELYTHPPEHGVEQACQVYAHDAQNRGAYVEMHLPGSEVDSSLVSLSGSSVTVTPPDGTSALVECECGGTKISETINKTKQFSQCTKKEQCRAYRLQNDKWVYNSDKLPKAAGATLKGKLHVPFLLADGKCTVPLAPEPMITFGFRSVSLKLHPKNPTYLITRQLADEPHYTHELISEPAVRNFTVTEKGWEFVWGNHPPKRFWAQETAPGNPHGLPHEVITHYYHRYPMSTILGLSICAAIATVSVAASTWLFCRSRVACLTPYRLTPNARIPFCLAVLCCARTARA

[3] = molecular target: T3, VEEV E2 envelope glycoprotein (strain TC83), in the VLP (Venezuelan equine encephalitis virus, …, strain)
T3 construct: also called E2 subunit
T3 chain 1: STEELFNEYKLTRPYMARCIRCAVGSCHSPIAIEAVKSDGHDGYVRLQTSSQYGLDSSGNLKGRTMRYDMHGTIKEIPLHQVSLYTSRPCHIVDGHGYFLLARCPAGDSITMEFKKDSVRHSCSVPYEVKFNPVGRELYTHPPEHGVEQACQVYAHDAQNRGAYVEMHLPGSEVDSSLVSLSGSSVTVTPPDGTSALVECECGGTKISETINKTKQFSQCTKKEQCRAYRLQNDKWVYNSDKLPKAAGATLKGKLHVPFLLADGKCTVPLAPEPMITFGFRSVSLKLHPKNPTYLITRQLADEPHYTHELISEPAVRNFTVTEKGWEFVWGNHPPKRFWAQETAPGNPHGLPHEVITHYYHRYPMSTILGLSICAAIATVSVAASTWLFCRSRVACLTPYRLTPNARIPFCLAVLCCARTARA
T3 chain 2: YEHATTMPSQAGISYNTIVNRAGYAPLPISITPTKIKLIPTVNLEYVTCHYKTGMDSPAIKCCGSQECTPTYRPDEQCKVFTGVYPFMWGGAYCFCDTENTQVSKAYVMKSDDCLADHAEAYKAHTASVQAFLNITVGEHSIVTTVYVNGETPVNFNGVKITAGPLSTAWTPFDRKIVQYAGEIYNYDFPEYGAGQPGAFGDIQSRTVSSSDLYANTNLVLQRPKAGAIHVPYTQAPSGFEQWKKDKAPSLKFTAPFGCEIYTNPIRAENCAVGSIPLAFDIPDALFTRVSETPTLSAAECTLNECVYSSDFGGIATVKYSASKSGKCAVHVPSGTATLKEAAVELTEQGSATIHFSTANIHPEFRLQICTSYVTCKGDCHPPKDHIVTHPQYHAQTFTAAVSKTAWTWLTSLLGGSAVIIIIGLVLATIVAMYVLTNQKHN

Measured: binding result

B1: sdAb V2B3 (VHH)
VHH: EVQLQASGGGLVQAGGSLRLSCAASGSIVSINVMAWYRQSPGKERELVAKSSGPFTLYADSVKGRFTISNDAAKNTVDLQMNSLKPEDTAVYYCNAEGLRYPSGTYGPSAVWGQGTQVTVSS
notes: source: ClearColi BL21(DE3), purified (Ni Sepharose, MEP HyperCel, SEC)
binds: [1] | [2] | [3]

B2: sdAb V3A8f (VHH)
VHH: DVQLQASGGGSVQAGGSLRLSCAASGHSFANYHVAWIRQTPGKEREFVGSASRRDDSTYYADFALGRFIISRDNDINTAYLQMNSLKPEDSAVYYCVAAVMAQTTQGWTTDYDLRGQGTQVTVSS
binds: [1] | [2] | [3]

B3: sdAb V2C3 (VHH)
VHH: DVQLQASGGGSVQAGGSLRLSCVASQNLFEYYTMGWYRQVPGSQRERVALINNGGSNVAGSVEGRFTISRDNAKNSIYLQMNNLKPEDSAVYYCRAFGPADYWGQGTQVTVSS
notes: as for B1
binds: [1] | [2] | [3]
